According to US20150239950A1 (SALK INSTITUTE FOR BIOLOGICAL STUDIES, published 2015):
Numbering of substitutions follows the chain as printed. Where two headings read alike, the source gives them in different places.

T1: BMP6 homodimer (mature domain of human BMP6, residues 1-132) (human, UniProt P22004 382-513)
T1 sequence: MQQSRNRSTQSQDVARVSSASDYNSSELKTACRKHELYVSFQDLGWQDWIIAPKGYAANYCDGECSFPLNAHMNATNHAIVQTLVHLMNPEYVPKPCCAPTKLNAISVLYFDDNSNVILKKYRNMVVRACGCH

B1: Activin-βA (ligand)
chain: GLECDGKVNICCKKQFFVSFKDIGWNDWIIAPSGYHANYCEGECPSHIAGTSGSSLSFHSTVINHYRMRGHSPFANLKSCCVPTKLRPMSMLYYDDGQNIIKKDIQNMIVEECGCS
notes: also called Activin-A
B2: ActRIIb-ECD (extracellular domain of mouse ActRIIb, residues 1-98) (receptor, UniProt P27040 19-137, looked up)
chain: SGRGEAETRECIYYNANWELERTNQSGLERCEGEQDKRLHCYASWRNSSGTIELVKKGCWLDDFNCYDRQECVATEENPQVYFCCCEGNFCNERFTHLPEPGGPEVTYEPPPTAPTLLT
notes: extracellular domain; also called type II receptor ECD
B3: BMP2/BMP6 heterodimer (ligand)
chain 1: QAKHKQRKRLKSSCKRHPLYVDFSDVGWNDWIVAPPGYHAFYCHGECPFPLADHLNSTNHAIVQTLVNSVNSKIPKACCVPTELSAISMLYLDENEKVVLKNYQDMVVEGCGCR
chain 2: T1 sequence
notes: also called B2/B6
B4: AB2-008 (1b2a3a4a5a6a activin/BMP-2 chimera) (ligand)
chain: MQAKHKQRKRLKSSCKRHPLYVDFSDVGWNDWIIAPSGYHANYCEGECPSHIAGTSGSSLSFHSTLVNHYRMRGHSPFANLKSCCVPTKLRPMSMLYYDDGQNIIKKDIQNMIVEECGCS
notes: The entry includes the initiator Met
B5: AB2-015 (1b2a3b4b5b6a activin/BMP-2 chimera) (ligand)
chain: MQAKHKQRKRLKSSCKRHPLYVDFSDVGWNDWIIAPSGYHANYCDGECPFPLADHLNSTNHAIVQTLVNSVNSKIPKACCVPTELSAISMLYYDDGQNIIKKDIQNMIVEECGCS
B6: AB2-004 (1b2a3b4b5a6a activin/BMP-2 chimera) (ligand)
chain: B5 chain with E84K, S86R, A87P, I88M
B7: AB2-012 (1b2b3b4b5b6a activin/BMP-2 chimera) (ligand)
chain: B5 chain with I34V, S37P, N42F, D45H, Q97R
B8: BMP2 homodimer (mature domain of human BMP2) (ligand)
chain: B3 chain 1
notes: also called BMP-2wt; BMP-2ma
B9: AB2-011 (1b2b3b4b5a6a activin/BMP-2 chimera) (ligand)
chain: MQAKHQQRKRLKSSCKRHPLYVDFSDVGWNDWIVAPPGYHAFYCHGECPFPLADHLNSTNHAIVQTLVNSVNSKIPKACCVPTKLRPSMLYYDDGQNIIKKDIQNMIVEECGCS
B10: BMPRIa-ECD (extracellular domain of human BMPRIa, residues 1-129) (receptor, UniProt P36894 24-152, looked up)
chain: QNLDSMLHGTGMKSDSDQKKSENGVTLAPEDTLPFLKCYCSGHCPDDAINNTCITNGHCFAIIEEDDQGETTLASGCMKYEGSDFQCKDSPKAQLRRTIECCRTNLCNQYLQPTLPPVVIGPFFDGSIR
notes: extracellular domain; also called type I receptor ECD

Legend:
[1] = molecular target: T2, ActRII-ECD (extracellular domain of mouse ActRII, residues 1-102) (mouse, UniProt P27038 20-135); test: SPR (BIAcore), receptor ECD immobilized, ligand flowed; KD = koff/kon; single trial
T2 construct: extracellular domain; also called type II receptor ECD
Description: (§1) The receptors were immobilized to the chip surface with the ligands flowed over the surface. The data were fit to a kinetic model (1:1 Langmuir binding with mass transfer) in which KD is calculated as koff/kₒₙ. The table reports data from a single trial.

[2] = molecular target: T2, ActRII-ECD (extracellular domain of …); test: SPR (BIAcore), receptor ECD immobilized, ligand flowed; 1:1 Langmuir with mass transfer; single trial
Description: as §1

[3] = molecular target: Cripto (mouse Cripto construct transfected into HEK293T cells) (mouse) (UniProt P51865); test: cell-based or functional assay
[4] = molecular target: B10; test: SPR (BIAcore), receptor ECD immobilized, ligand flowed; 'No Binding indicates that the interaction was not detectable'
Description: as §1

[5] = molecular target: T2, ActRII-ECD (extracellular domain of …); test: SPR (BIAcore), receptor ECD immobilized, ligand flowed; 1:1 Langmuir with mass transfer; single trial; remark: listed apart in the source
Description: as §1

[6] = molecular target: T2, ActRII-ECD (extracellular domain of …); test: SPR (BIAcore), receptor ECD immobilized, ligand flowed; KD = koff/kon; single trial; remark: listed apart in the source
Description: as §1

[7] = molecular target: T1, BMP6 homodimer (mature domain of human …); test: SPR, receptor binding affinity
[8] = molecular target: B3; test: SPR, receptor binding affinity
[9] = molecular target: T1, BMP6 homodimer (mature domain of human …); test: SPR (BIAcore), receptor ECD immobilized, ligand flowed; KD = koff/kon
Description: (§2) The affinity of the ligands to BMPRIa, ActRII, and ActRIIb was monitored by using a Biacore 3000 (GE Healthcare) and the data were analyzed by using BlAevaluation software ver. 4.1 (GE Healthcare). Using primary amine coupling, receptor ECDs were immobilized on a CM5 chip. The receptors were immobilized independently on flow cells 2-4 for 10 minutes at a flow rate of 5 μL/min and a concentration of 20 μM in 10 mM Na acetate, pH 4.0. Flow cell 1 was left blank, no immobilized protein, as a negative control. […] A minimum of five concentrations, plus a zero concentration, were run per sample for kinetic analysis and the data were fit by using a global 1:1 Langmuir binding with mass transfer.
(§3) Ligand affinity data from BIAcore experiments. The BIAcore data is shown as the dissociation rate, koff, and the association rate, kₒₙ, based on a global fit using the kinetic model 1:1 Langmuir binding with mass transfer. The binding constant KD is calculated as koff/kₒₙ. The receptors were immobilized to the chip surface, with the ligands flowed over the surface.

[10] = molecular target: B3; test: as above
Description: as §2, §3

[11] = molecular target: T1, BMP6 homodimer (mature domain of human …); test: SPR (BIAcore), receptor ECD immobilized, ligand flowed; 1:1 Langmuir with mass transfer
Description: as §2, §3

[12] = molecular target: T2, ActRII-ECD (extracellular domain of …); test: native-PAGE receptor ECD saturation assay, 5 µg ActRII-ECD with 10 µg ligand, Coomassie densitometry
[13] = molecular target: T2, ActRII-ECD (extracellular domain of …); test: SPR (BIAcore), receptor ECD immobilized
[14] = molecular target: B2; test: SPR, receptor binding affinity
[15] = molecular target: B2; test: SPR (BIAcore), receptor ECD immobilized, ligand flowed; KD = koff/kon
Description: as §2, §3

T2 sequence (P27038 20-135): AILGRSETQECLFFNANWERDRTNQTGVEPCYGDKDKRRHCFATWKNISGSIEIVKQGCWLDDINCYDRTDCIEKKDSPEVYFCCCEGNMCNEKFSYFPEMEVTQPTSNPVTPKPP
Cripto (mouse Cripto construct transfected into HEK293T cells) (mouse), sequence (P51865 18-134): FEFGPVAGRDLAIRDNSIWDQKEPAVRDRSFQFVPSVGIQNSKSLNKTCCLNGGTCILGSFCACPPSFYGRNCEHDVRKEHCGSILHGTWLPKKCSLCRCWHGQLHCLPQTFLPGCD

B1
Kd [1]: 0.203 nM
koff [2]: 0.000716 s⁻¹
kon [2]: 3.52e+06 M⁻¹ s⁻¹
decrease in Smad-2/3 luciferase signaling in HEK293T cells in the presence of Cripto [3]: 43%
binding result [4]: no binding
koff [5]: 0.000716 s⁻¹
kon [5]: 3.52e+06 M⁻¹ s⁻¹
Kd [6]: 0.203 nM

B2
Kd [7]: 6.68 nM
koff [7]: 0.00182 s⁻¹
kon [7]: 273000 M⁻¹ s⁻¹
Kd [8]: 6.52 nM
koff [8]: 0.00861 s⁻¹
kon [8]: 1.32e+06 M⁻¹ s⁻¹
Kd [9]: 6.68 nM
Kd [10]: 6.52 nM
koff [11]: 0.00182 s⁻¹
kon [11]: 273000 M⁻¹ s⁻¹

B3
fold decrease of the free type II receptor ECD band intensity against receptor ECD alone [12]: 9 fold

B4
Kd [1]: 0.344 nM
fold weaker affinity against activin-βA [13]: ~1.7 fold
binding result [4]: no binding
koff [5]: 0.000824 s⁻¹
kon [5]: 2.39e+06 M⁻¹ s⁻¹

B5
fold higher binding against BMP-2 [13]: ~100 fold
koff [2]: 0.000371 s⁻¹
kon [2]: 1.61e+06 M⁻¹ s⁻¹
binding result [4]: no binding
Kd [6]: 0.23 nM

B6
koff [2]: 0.000187 s⁻¹
kon [2]: 491000 M⁻¹ s⁻¹
Kd [6]: 0.381 nM

B7
koff [2]: 0.0016 s⁻¹
kon [2]: 3.39e+06 M⁻¹ s⁻¹
Kd [6]: 0.472 nM

B8
Kd [14]: 38.5 nM
Kd [15]: 38.5 nM
Kd [6]: 36.8 nM

B9
koff [2]: 0.000339 s⁻¹
kon [2]: 646000 M⁻¹ s⁻¹
Kd [6]: 0.525 nM

B10
Kd [7]: 62.8 nM
Kd [9]: 62.8 nM
